Measurements taken from US20240116985A1 (published 2024).
Starred links: 1 amine or outer side, 2 acyl side, 3 side chain; linkers in the order of their positions; H or OH if unused. Positions of bridges follow the written chain, without caps; N, C: chain ends. Non-standard residues stand in square brackets, D forms with d. Primed or numbered codes have the meaning given here. PyrS2(3) = (S)-3-amino-1-((pent-4-en-1-yloxy)carbonyl)pyrrolidine-3-carboxylic acid, stapling residue, C=CCCCOC(=O)N1CC[C@@](N[*:1])(C(=O)[*:2])C1; PyrS2″ = (S)-3-amino-1-((pent-4-en-1-yloxy)carbonyl)pyrrolidine-3-carboxylic acid (stapling residue), C=CCCCOC(=O)N1CC[C@@](N[*:1])(C(=O)[*:2])C1; B5(18) = 2,2-bis(4-pentenyl)glycine (2-amino-2-(pent-4-en-1-yl)hept-6-enoic acid), stitching residue, C=CCCCC(CCCC=C)(N[*:1])C(=O)[*:2]; B5(4) = 2,2-bis(4-pentenyl)glycine = 2-amino-2-(pent-4-en-1-yl)hept-6-enoic acid (stitching residue), C=CCCCC(CCCC=C)(N[*:1])C(=O)[*:2]; B5(5) = 2,2-bis(4-pentenyl)glycine, 2-amino-2-(pent-4-en-1-yl)hept-6-enoic acid (stitching residue), C=CCCCC(CCCC=C)(N[*:1])C(=O)[*:2]; TfeGA = (S)-2-amino-3-((carboxymethyl)(2,2,2-trifluoroethyl)amino)propanoic acid, O=C([C@H](CN(CC(=O)[*:3])CC(F)(F)F)N[*:1])[*:2]; B5(19) = 2-amino-2-(pent-4-en-1-yl)hept-6-enoic acid (bis(4-pentenyl)glycine), C=CCCCC(CCCC=C)(N[*:1])C(=O)[*:2]; TriAzDap = Dap whose side chain is a 1H-1,2,3-triazol-1-yl bearing the bracketed 4-substituent; Phe(4-CN) = N#Cc1ccc(C[C@H](N)C(=O)O)cc1; Phe(2-Cl) = N[C@@H](Cc1ccccc1Cl)C(=O)O; Bta = N[C@@H](Cc1csc2ccccc12)C(=O)O; αAllylPro = C=CC[C@@]1(C(=O)O)CCCN1; tBuAla = CC(C)(C)C[C@H](N)C(=O)O; 3Thi = N[C@@H](Cc1ccsc1)C(=O)O; S8 = C=CCCCCCC[C@](C)(N)C(=O)O

T1: B-cat-Halo (beta-catenin HaloTag NanoBRET construct expressed in HEK293 cells) (UniProt P35222 1-781, HaloTag NanoBRET 618 Ligand bound to the HaloTag)
T1 sequence (looked up): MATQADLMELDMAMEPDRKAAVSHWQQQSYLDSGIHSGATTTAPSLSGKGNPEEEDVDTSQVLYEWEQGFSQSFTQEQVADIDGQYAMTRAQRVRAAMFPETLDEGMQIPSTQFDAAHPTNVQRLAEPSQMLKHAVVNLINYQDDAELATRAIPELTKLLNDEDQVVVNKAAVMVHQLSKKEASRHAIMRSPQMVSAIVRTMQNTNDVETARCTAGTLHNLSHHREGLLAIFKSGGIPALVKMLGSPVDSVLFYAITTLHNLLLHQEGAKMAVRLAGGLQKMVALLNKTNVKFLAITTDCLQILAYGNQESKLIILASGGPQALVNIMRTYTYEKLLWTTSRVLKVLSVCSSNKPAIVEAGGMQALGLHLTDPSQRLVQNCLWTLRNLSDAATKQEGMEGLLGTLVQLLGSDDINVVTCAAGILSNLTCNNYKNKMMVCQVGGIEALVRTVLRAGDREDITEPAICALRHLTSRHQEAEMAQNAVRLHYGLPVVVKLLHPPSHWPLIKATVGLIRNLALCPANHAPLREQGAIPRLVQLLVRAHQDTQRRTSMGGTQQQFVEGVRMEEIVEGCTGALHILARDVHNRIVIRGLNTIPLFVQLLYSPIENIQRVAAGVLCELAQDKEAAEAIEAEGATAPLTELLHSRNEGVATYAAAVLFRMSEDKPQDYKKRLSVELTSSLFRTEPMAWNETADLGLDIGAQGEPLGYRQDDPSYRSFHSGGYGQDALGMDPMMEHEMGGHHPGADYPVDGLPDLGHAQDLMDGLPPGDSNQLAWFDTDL

T2: full-length beta-Catenin (Uniprot ID P35222) (Homo sapiens (Human), UniProt P35222 1-781)
T2 construct: Any tags on the recombinant protein are not described for the FP assay; also called bCat; B-Catenin
T2 sequence: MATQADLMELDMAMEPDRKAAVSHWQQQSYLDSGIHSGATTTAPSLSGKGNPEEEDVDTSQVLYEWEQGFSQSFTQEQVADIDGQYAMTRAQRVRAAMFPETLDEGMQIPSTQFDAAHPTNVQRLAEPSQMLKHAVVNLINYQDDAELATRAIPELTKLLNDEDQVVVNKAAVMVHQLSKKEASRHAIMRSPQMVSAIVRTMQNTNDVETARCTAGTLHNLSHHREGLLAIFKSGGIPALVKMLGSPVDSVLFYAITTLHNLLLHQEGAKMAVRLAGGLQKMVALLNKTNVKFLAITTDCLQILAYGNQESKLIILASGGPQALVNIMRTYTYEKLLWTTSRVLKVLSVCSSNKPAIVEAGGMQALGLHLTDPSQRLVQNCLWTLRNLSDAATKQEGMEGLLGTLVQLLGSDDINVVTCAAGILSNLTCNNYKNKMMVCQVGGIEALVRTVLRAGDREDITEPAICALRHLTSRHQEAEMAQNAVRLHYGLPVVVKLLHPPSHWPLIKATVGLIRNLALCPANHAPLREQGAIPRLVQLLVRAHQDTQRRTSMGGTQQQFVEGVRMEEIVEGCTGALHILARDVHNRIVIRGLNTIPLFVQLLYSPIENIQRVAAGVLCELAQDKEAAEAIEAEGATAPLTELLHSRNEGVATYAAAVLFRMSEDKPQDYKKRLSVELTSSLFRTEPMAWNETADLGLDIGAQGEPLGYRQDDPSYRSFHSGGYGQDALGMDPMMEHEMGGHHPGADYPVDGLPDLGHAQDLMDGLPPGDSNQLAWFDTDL

T3: full-length beta-Catenin (Uniprot ID P35222) (Homo sapiens (Human), UniProt P35222 1-781)
T3 construct: also called bCat; B-Catenin
T3 sequence: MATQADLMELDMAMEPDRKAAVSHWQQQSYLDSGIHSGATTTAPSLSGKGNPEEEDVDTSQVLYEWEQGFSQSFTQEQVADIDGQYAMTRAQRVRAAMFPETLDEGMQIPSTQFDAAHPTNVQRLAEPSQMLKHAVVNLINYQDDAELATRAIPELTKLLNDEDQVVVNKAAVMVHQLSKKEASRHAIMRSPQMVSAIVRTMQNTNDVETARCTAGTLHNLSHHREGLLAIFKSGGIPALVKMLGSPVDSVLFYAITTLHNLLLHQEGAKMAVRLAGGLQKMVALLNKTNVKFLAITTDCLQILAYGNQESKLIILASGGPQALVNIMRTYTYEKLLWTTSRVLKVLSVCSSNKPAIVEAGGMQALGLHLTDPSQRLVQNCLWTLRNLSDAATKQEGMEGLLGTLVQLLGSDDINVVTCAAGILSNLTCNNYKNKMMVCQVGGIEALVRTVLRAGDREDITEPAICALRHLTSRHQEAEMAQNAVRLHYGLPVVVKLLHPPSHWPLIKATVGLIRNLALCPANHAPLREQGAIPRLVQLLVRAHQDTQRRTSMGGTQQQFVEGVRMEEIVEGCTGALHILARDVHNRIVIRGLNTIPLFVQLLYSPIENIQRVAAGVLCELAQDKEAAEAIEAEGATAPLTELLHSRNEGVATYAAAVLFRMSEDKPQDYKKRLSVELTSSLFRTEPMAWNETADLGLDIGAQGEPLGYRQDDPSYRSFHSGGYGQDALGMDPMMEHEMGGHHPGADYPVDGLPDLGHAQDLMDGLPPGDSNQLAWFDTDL

T4: B-cat-Halo (beta-catenin HaloTag NanoBRET construct expressed in HEK293 cells) (UniProt P35222 1-781)
T4 sequence (looked up): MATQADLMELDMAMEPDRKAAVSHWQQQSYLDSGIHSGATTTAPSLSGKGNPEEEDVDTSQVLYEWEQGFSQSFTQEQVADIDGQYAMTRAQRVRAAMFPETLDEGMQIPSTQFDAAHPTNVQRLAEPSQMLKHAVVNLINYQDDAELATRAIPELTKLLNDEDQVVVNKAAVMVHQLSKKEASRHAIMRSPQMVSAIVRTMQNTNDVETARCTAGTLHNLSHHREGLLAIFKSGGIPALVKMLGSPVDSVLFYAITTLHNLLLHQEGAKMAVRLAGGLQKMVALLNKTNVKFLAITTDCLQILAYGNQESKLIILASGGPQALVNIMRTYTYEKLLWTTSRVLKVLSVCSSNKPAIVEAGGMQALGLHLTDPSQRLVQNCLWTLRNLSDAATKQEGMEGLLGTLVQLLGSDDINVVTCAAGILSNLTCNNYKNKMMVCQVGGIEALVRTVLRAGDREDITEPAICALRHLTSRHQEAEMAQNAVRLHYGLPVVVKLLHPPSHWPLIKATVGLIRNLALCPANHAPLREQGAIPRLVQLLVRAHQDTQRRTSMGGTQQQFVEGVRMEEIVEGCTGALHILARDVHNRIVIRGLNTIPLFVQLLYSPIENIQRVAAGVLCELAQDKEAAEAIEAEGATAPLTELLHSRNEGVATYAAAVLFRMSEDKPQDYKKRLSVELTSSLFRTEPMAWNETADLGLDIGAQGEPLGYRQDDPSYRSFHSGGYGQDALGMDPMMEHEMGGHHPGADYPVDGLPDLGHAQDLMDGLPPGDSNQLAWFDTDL

T5: beta-catenin (Homo sapiens (Human), UniProt P35222 1-781)
T5 construct: The FP protocol says full-length beta-Catenin (Uniprot ID P35222); also called full-length beta-Catenin; bCat
T5 sequence: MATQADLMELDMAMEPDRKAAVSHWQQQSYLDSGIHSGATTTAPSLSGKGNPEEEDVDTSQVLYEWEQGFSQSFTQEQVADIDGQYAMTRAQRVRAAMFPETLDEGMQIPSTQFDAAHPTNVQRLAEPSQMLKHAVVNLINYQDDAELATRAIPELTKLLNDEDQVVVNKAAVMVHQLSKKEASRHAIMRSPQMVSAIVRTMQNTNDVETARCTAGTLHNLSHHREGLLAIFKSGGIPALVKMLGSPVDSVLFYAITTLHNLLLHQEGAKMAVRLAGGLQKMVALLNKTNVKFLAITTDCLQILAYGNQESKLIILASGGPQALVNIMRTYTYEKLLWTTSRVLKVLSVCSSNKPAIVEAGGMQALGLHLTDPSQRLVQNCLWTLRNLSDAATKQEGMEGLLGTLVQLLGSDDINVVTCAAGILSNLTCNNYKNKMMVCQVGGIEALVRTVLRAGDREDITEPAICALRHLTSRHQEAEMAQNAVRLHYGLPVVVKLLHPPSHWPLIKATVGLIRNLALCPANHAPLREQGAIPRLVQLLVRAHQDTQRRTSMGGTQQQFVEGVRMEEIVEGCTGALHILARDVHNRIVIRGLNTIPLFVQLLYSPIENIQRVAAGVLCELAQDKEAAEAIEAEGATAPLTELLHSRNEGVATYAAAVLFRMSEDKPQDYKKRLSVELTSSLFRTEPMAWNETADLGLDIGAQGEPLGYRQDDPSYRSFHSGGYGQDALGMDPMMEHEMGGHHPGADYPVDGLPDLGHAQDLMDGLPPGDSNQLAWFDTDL


Columns and labels:
[1] = target: T1, B-cat-Halo (beta-catenin HaloTag …); assay: cell-based or functional assay
[2] = target: T2, full-length beta-Catenin (Uniprot ID …); assay: fluorescence polarization competition; displacement of 5FAM-TCF4(10-53) from full-length beta-catenin
Procedure: (§1) The plate was incubated protected from light for 60 minutes at 20° C. prior to read. Reads were performed on a CLARIOstar plate reader (BMG Labtech) in duplicate, and data were fitted to a 1:1 binding model with hill slope using an in-house script. All provided concentrations are final concentrations.

[3] = target: T3, full-length beta-Catenin (Uniprot ID …); assay: fluorescence polarization competition; peptide titrated against 10 nM full-length beta-catenin + 10 nM 5FAM-TCF4(10-53)
Procedure: as §1

[4] = target: T4, B-cat-Halo (beta-catenin HaloTag …); assay: cell-based or functional assay
[5] = target: T5, beta-catenin; assay: fluorescence polarization competition; full-length beta-catenin with 5FAM-TCF4(10-53) probe as competitor
Method in brief: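 Data fitted to 1:1 binding model with hill slope from duplicate reads taken after 60 minutes at 20° C. in the dark.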

Row | IC50 [3] [µM] | Binder | further results
1 | – | Ac-[αAllylPro]DS[B5(5)]DEAAFL[S8]F[Bta]Q-NH2 (staple 1-4, 4-11, Stapled peptide composition; Staple olefins are retained) [I-1528: Ac-PL3-Asp-Ser-B5-Asp-Glu-Ala-Ala-Phe-Leu-S8-Phe-BztA-Gln-NH2] | NanoBRET Abs IC50 [1]: 31.4 µM; IC50 [2]: 0.102 µM
2 | 5 | Ac-[αAllylPro]DA[B5(19)]DDAAFV[S8][Phe(4-CN)][Bta]Q-NH2 (staple 1-4, 4-11, Stapled peptide; also called Ac-PL3-Asp-Ala-B5-Asp-Asp-Ala-Ala-Phe-Val-S8-4CNF-BztA-Gln-NH2) [I-359] | –
3 | 5 | XDAXDDAAFVXFAQ (not fully specified; N-terminal Ac; PL3 at 1, B5 at 4, S8 at 11 (staples 1-4 and 4-11 by olefin metathesis); C-terminal NH2, Stapled peptide; also called Ac-PL3-Asp-Ala-B5-Asp-Asp-Ala-Ala-Phe-Val-S8-Phe-Ala-Gln-NH2) [I-357] | –
4 | 5 | XDAXDDAAAVXFWQ (not fully specified; N-terminal Ac; PL3 at 1, B5 at 4, S8 at 11 (staples 1-4 and 4-11 by olefin metathesis); C-terminal NH2, Stapled peptide; also called Ac-PL3-Asp-Ala-B5-Asp-Asp-Ala-Ala-Ala-Val-S8-Phe-Trp-Gln-NH2) [I-354] | –
5 | – | Ac-[αAllylPro]D[tBuAla][B5(18)]D[TfeGA]AAF[TriAzDap](SO2MorphCH2)[PyrS2(3)][3Thi][Bta]Q-NH2 (staple 1-4, 4-11; not fully specified) [I-1868] | NanoBRET Abs IC50 [4]: 39.6 µM
6 | – | Ac-[αAllylPro]DL[B5(4)]DDAAFL[PyrS2″][Phe(2-Cl)][Bta]L-NH2 (staple 1-4, 4-11; also: staple isomer composition of later HPLC peak, stapled peptide) [I-1419] | EC50 [5]: 0.152 µM
7 | 5 | XDAXDDAAFVXFAQ (not fully specified; N-terminal Ac; PL3 at 1, B5 at 4, S8 at 11 (staples 1-4 and 4-11 by olefin metathesis); C-terminal NH2, Stapled peptide; also called Ac-PL3-Asp-Ala-B5-Asp-Asp-Ala-Ala-Phe-Val-S8-Phe-Ala-Gln-NH2) [I-358] | –
